Measured values published in article PMC8701324 (2021).

Molecular target: MRG15 MRG domain, amino acids 155-323 (UniProt Q9UBU8-2 155-323)
Experiment: FP

Sequence of MRG15 MRG domain, amino acids 155-323 (Q9UBU8 194-362): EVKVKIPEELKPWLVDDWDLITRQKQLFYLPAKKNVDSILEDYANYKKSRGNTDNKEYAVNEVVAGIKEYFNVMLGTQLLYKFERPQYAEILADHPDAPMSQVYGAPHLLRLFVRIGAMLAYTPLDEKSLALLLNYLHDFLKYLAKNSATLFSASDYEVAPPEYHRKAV

Ki: 9.8 nM
B1: 6xHis-PALB2^597-630 (peptide)
chain: MLSLKQLLSFLSITDFQLPDEDFGPLKLEKVKSC
